Test results from patent publication US20210052695A1 (CAMBRIDGE ENTERPRISE, published 2021).
Ends that are not written are not given here. * marks the point of attachment. TAMRA = 5-carboxytetramethylrhodamine, CN(C)c1ccc2c(-c3ccc(C(=O)*)cc3C(=O)[O-])c3ccc(N(C)C)cc3[o+]c2c1

Columns and labels:
[1] = target: T1, UDP-glucose:glycoprotein glucosyltransferase 1 (UGT1) (UniProt Q9NYU2 43-1555); assay: immunoprecipitation of the intracellular TAPBPR pool, Western blot for UGT1
T1 construct: Detected by Western blot in TAPBPR immunoprecipitates
T1 sequence (Q9NYU2 43-1555 limits assumed): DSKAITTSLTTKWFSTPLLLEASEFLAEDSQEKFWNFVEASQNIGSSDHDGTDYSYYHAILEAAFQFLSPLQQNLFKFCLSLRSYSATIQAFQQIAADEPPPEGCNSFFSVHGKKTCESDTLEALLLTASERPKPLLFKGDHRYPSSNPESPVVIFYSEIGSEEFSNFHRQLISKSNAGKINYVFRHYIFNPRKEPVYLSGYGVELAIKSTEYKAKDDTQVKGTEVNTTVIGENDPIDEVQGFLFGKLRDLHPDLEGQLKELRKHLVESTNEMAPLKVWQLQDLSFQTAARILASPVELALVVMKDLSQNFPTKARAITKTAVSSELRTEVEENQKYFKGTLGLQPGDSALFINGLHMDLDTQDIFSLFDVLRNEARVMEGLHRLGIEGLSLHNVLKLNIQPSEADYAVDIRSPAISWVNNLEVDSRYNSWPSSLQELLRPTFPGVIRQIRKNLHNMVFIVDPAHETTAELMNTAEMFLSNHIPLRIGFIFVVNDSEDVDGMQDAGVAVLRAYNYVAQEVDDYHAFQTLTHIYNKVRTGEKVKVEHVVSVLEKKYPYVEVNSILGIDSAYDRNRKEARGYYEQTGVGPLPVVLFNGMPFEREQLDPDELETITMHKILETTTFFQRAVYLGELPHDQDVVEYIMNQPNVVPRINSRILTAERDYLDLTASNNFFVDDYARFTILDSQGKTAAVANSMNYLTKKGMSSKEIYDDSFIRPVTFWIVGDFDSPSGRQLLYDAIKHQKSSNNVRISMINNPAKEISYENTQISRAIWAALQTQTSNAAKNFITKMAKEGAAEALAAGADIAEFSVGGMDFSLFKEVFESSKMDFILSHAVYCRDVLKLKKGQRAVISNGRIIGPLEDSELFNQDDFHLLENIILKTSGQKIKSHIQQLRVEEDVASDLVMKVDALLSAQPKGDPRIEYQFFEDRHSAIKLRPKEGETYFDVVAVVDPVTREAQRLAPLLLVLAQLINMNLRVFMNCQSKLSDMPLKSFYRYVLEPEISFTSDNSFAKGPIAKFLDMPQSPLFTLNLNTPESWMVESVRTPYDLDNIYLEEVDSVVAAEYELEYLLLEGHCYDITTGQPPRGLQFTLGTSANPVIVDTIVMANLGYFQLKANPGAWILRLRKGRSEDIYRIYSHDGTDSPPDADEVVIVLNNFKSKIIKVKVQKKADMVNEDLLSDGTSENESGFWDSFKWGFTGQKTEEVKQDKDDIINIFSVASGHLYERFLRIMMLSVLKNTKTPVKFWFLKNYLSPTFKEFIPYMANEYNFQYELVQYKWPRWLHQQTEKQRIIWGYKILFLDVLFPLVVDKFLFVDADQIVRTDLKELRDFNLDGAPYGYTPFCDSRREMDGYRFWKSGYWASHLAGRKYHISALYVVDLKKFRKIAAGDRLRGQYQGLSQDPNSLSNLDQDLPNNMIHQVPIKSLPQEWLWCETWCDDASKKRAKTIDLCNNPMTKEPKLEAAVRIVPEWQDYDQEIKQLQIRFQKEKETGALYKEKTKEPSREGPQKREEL
Method: Nuclei and cell debris were pelleted by centrifugation at 13,000×g for 15 min and supernatants were collected. Immunoprecipitation was performed with Pete4 antibody coupled to protein A sepharose (GE Healthcare) for 2 h at 4° C. with rotation. Following immunoprecipitation, beads were washed thoroughly in 0.1% detergent-TBS to remove unbound protein. […] In order to analyse the samples by western blotting, proteins were transferred onto an Immobilon transfer membrane (Merck Millipore). Membranes were blocked using 5% (w/v) dried milk and 0.1% (v/v) Tween 20 in PBS for 30 min and subsequently incubated with the indicated primary antibody for 1-16 h. After washing, membranes were incubated with species-specific HRP-conjugated secondary antibodies, washed and detected by enhanced chemiluminescence using Western Lightning (Perkin Elmer, UK) and Super RX film (Fujifilm, UK). Films were scanned on a CanoScan8800F using MX Navigator Software (Canon, UK).

[2] = target: T2, HLA-A*68:02 expressed on the cell surface (HeLaM cells, or HeLaM-HLA-ABC^KO cells reconstituted with … (human)); assay: flow cytometry of fluorescent peptide on transduced HeLaM-TAPBPR^KO cells
T2 construct: whole, on cells; Carries the cells' own, unnamed peptides before exchange; also called HLA-A*A68:02

[3] = target: T2, HLA-A*68:02 expressed on the cell …; assay: flow cytometry, time course with 10 nM fluorescent peptide (FIG. 1e)
Method: (§1) Target cell lines were seeded at 25,000-30,000 cells/well in 12-well plates and stimulated with IFN-γ. Following the stimulation period, the cells were washed 3 times with 1×PBS and incubated with 300 μL pre-warmed opti-MEM (Thermo Fisher Scientific, UK). […] After 15 min, the desired TAMRA-labelled peptide was added to the cells and incubated at 37° C. (15 min for HLA-A*68:02 or 60 min for HLA-A*02:01). […] Following the peptide treatment, the cells were washed three times in 1×PBS and harvested. The level of bound peptide/cell was determined by flow cytometry, using the YelFL1 channel (Cytek).

[4] = target: T2, HLA-A*68:02 expressed on the cell …; assay: flow cytometry, dose response of fluorescent peptide on HeLaM cell lines (FIG. 1d)
Method: as §1

[5] = target: T2, HLA-A*68:02 expressed on the cell …; assay: cell-based peptide exchange on HeLa^KOTAPBPR^WT cells, displacement of fluorescent peptide, flow cytometry
Method: (§2) Cells were incubated with 10 nM fluorescent peptide for 15 min at 37° C., washed, then subsequently incubated with increasing concentrations of unlabeled competitor peptide for 15 min at 37° C.
(§3) First, cells were incubated with 10 nM fluorescently-labelled peptide for 15 min at 37° C. to allow surface MHC class I molecules to bind to labelled peptides. The, after extensive washing to remove any unbound fluorescent peptide, the ability of the cells to exchange the labelled peptide was assessed by incubating the cell with various unlabeled competitor peptides for 15 min at 37° C.

[6] = target: T2, HLA-A*68:02 expressed on the cell …; assay: flow cytometry with PeTe-4 on HeLaM, HeLaM-HLA-ABC^KO and HLA-A*68:02 reconstituted cells, 100 nM protein, 15 min at 37° C.
From the text: Line graphs show MFI−/+s.e.m from three independent experiments. […] (i) Bar graphs showing the MFI of fluorescent peptide binding to HeLaM HLA-ABC^KO+A2−/+s.e.m from two independent experiments with duplicates. ***P≤0.001, ****P≤0.0001, n/s not significant, using unpaired two-tailed t-test.

[7] = target: T2, HLA-A*68:02 expressed on the cell …; assay: flow cytometry of fluorescent peptide on IFN-γ treated HeLaM cell lines, 15 min at 37° C.
Method: as §1

[8] = target: T2, HLA-A*68:02 expressed on the cell …; assay: cell-based peptide exchange: no dissociation of fluorescent peptide from HLA-A*68:02 on HeLa^KOTAPBPR^WT cells
Method: as §2, §3

[9] = target: T2, HLA-A*68:02 expressed on the cell …; assay: flow cytometry of TAPBPR on HeLaM cells without surface GFP

B1: full-length TAPBPR^WT over-expressed in HeLaM-TAPBPR^KO cells (other)
chain: KPHPAEGQWRAVDVVLDCFLVKDGAHRGALASSEDRARASLVLKQVPVLDDGSLEDFTDFQGGTLAQDDPPIIFEASVDLVQIPQAEALLHADCSGKEVTCEISRYFLQMTETTVKTAAWFMANVQVSGGGPSISLVMKTPRVAKNEVLWHPTLNLPLSPQGTVRTAVEFQVMTQTQSLSFLLGSSASLDCGFSMAPGLDLISVEWRLQHKGRGQLVYSWTAGQGQAVRKGATLEPAQLGMARDASLTLPGLTIQDEGTYICQITTSLYRAQQIIQLNIQASPKVRLSLANEALLPTLICDIAGYYPLDVVVTWTREELGGSPAQVSGASFSSLRQSVAGTYSISSSLTAEPGSAGATYTCQVTHISLEEPLGASTQVVPPERRTALGVIFASSLFLLALMFLGLQRRQAPTGLGLLQAERWETTSCADTQSSHLHEDRTARVSQPS
notes: V41_G151_V169 polymorphisms as used in the studies; also called surface TAPBPR; HeLa^KOTAPBPR^WT
- binding result [1]: binds

B2: ETVSK*QSNV (fluorescent variant of the neoantigen …) (peptide)
peptide: ETVSK(TAMRA)QSNV
- fold less exogenous peptide binding on tapasin^PM cells than on TAPBPR^PM cells [2]: ~10 times
- fold increase in fluorescent peptide bound to HeLaKO-TAPBPR^WT against the HeLaM and HeLaM^KO controls after 60 min [3]: 21 fold
- fold less efficient peptide binding to cells lacking surface TAPBPR than TAPBPR-promoted binding [4]: ~120 times

B3: ETVSEQSNV (unlabeled HLA-A*68:02-binding peptide) (peptide)
peptide: ETVSEQSNV
- binding result [5]: binds

B4: YVVPFVAK*V (fluorescent variant of YVVPFVAKV) (peptide)
peptide: YVVPFVAK(TAMRA)V
- fold less exogenous peptide binding on tapasin^PM cells than on TAPBPR^PM cells [2]: ~10 times

B5: YVVPFVAKV (unlabeled peptide) (peptide)
peptide: YVVPFVAKV
- binding result [5]: binds

B6: soluble TAPBPR^WT (secreted luminal domain of human TAPBPR, C-terminally His-tagged) (other)
chain: KPHPAEGQWRAVDVVLDCFLVKDGAHRGALASSEDRARASLVLKQVPVLDDGSLEDFTDFQGGTLAQDDPPIIFEASVDLVQIPQAEALLHADCSGKEVTCEISRYFLQMTETTVKTAAWFMANVQVSGGGPSISLVMKTPRVAKNEVLWHPTLNLPLSPQGTVRTAVEFQVMTQTQSLSFLLGSSASLDCGFSMAPGLDLISVEWRLQHKGRGQLVYSWTAGQGQAVRKGATLEPAQLGMARDASLTLPGLTIQDEGTYICQITTSLYRAQQIIQLNIQASPKVRLSLANEALLPTLICDIAGYYPLDVVVTWTREELGGSPAQVSGASFSSLRQSVAGTYSISSSLTAEPGSAGATYTCQVTHISLEEPLGASTQVVPPERR
notes: Made in 293T cells with the PiggyBac system and purified on Ni Sepharose; also called sol WT; exogenous TAPBPR^WT; not shown: C-terminal His tag
- binding result [6]: binds

B7: EGVSK*QSNG (fluorescent non-binding variant with the anchor residues mutated) (peptide)
peptide: EGVSK(TAMRA)QSNG
notes: also called ETVΔ2/9
- binding result [7]: no binding (tested: 10 nM)

B8: EGVSEQSNG (unlabeled derivative of … with the anchor residues at positions 2 and 9 replaced by glycine) (peptide)
peptide: EGVSEQSNG
notes: also called ETVΔ2/9
- binding result [8]: no binding

B9: TAPBPR-GFPNB fusion protein (soluble TAPBPR fused to a nanobody specific for GFP, long linker) (other)
chain: KPHPAEGQWRAVDVVLDCFLVKDGAHRGALASSEDRARASLVLKQVPVLDDGSLEDFTDFQGGTLAQDDPPIIFEASVDLVQIPQAEALLHADCSGKEVTCEISRYFLQMTETTVKTAAWFMANVQVSGGGPSISLVMKTPRVAKNEVLWHPTLNLPLSPQGTVRTAVEFQVMTQTQSLSFLLGSSASLDCGFSMAPGLDLISVEWRLQHKGRGQLVYSWTAGQGQAVRKGATLEPAQLGMARDASLTLPGLTIQDEGTYICQITTSLYRAQQIIQLNIQASPKVRLSLANEALLPTLICDIAGYYPLDVVVTWTREELGGSPAQVSGASFSSLRQSVAGTYSISSSLTAEPGSAGATYTCQVTHISLEEPLGASTQVVPPERRHVGGGGSGGGGSGGGGSTSQVQLVESGGALVQPGGSLRLSCAASGFPVNRYSMRWYRQAPGKEREWVAGMSSAGDRSSYEDSVKGRFTISRDDARNTVYLQMNSLKPEDTAVYYCNVNVGFEYWGQGTQVTVSSK
notes: 21 aa leader left out; also called sTAPBPR-linker-GFPNB; sTAPBPR-GFP sdAb
- binding result [9]: no binding (tested: 100 nM)
